The values that follow come from the RNAGym collection of RNA variant scans (doi:10.1073/pnas.2313332121).

Fewer inactive variants are shown than the library holds.

Sequences and labels used below:
B1: TPR 5TU (parent)
chain: GGAUCUUCUCGAUCUAACAAAAAAGACAAAUCUGCCACAAAGCUUGAGAGCAUCUUCGGAUGCAGAGGCGGCAGCCUUCGGUGGCGCGAUAGCGCCAACGUUCUCAACUAUGACACGCAAAACGCGUGCUCCGUUGAAUGGAGUUUAUCAUG

The variants in the data set derive from B1. The data set is described as follows: polymerase ribozyme fitness, log enrichment relative to wild type (log ratio); higher = more active; in vitro selection for triplet polymerase activity. In a few lines:
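Only genotypes with ≥10 input reads and ≥1 read per output were kept after Illumina sequencing of input and output libraries. These libraries were PCR-built, transcribed mutants of each subunit of a heterodimeric triplet polymerase ribozyme, each put through one triplicate in vitro selection round with frozen incubation at −7 °C, gel excision of extended constructs, streptavidin-bead capture and RT-PCR. Fitness is a logarithmic ratio of genotype enrichment to wild-type enrichment, from inverse-variance-weighted replicate averages, with the logarithm in base 2.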
Take A60G U102C: the “polymerase ribozyme fitness (log ratio)” value came out at 0.0901.
For the variant A12G A24G A37C C87G A120G U139G, the “polymerase ribozyme fitness (log ratio)” value was -4.13.
The figure for A97U U102C A138C is not above -4.2; for C38A G58C A98G A120C A121U it is -0.687; for U127G U145G it is not above -4.2.
As for A17U A37C G46A C85G C114U, the “polymerase ribozyme fitness (log ratio)” value was not above -4.2.
The result for A28C A30U reads -3.88.
The result for A39G reads -1.53; that for A22C G58A C72A C87G C125G G126U, not above -4.2.
The result for U55A C69A C76U U82G reads -3.45.
Take A22C A40C C63G: the “polymerase ribozyme fitness (log ratio)” value was found to be 0.514.
Turning to A52G C69U C93U, the “polymerase ribozyme fitness (log ratio)” value is -2.89.
The result for G84U A89U A98U G126U reads -0.825; that for A89C A110C, not above -4.2; that for G117C A137G, -0.587.
The result for U9G C32A A40G A52G reads not above -4.2.
The result for C27G C32A C93U C96U reads -4.06.
As to C87G G94C A98G, the “polymerase ribozyme fitness (log ratio)” value was -3.08.
Take A41C C75U G92C A150U: the “polymerase ribozyme fitness (log ratio)” value was -2.91.
The result for U56A C76U C125U U148G G152U reads -3.64.
Turning to C27U C32G G50A C69A A97G U135G G140A, the “polymerase ribozyme fitness (log ratio)” value is not above -4.2.
The result for A41G U53A U55A A91U C99A U148A reads not above -4.2; that for A22C A60U A66U C93U G100C A138G C149A, not above -4.2.
Consider G46C A47C G48A U82C, for which the “polymerase ribozyme fitness (log ratio)” value was not above -4.2.
Consider C27A U44A U61A C95U G117C A121U C129G, for which the “polymerase ribozyme fitness (log ratio)” value was not above -4.2.
The figure for C93U U109G U144G is -1.39.
The figure for U13A A24G C27U A39C G50A G84U is not above -4.2; for U45A G81C C96G it is -3.93.
Turning to G50A C57A G58C U77C G88C U139A, the “polymerase ribozyme fitness (log ratio)” value is not above -4.2.
The result for C8U C85A reads -2.75; that for C54A A60G G81A A91U A106U A110G G141C, not above -4.2; that for A12U G58A U144C U146A, -3.88.
The result for A49G U61A G71A U90C G94A A119G reads not above -4.2; that for A24G C79A C96A G141A, not above -4.2; that for A47C U55A, 0.201.
The figure for A16U G42A G59A G71A A89G is not above -4.2; for U90A C105G it is not above -4.2; for A26C U33A G92C C105G it is not above -4.2.
With C18U A60G G62A G86A C149U, the “polymerase ribozyme fitness (log ratio)” value was -3.44.
As to A73G G88C A107U C129U U139C U148A, the “polymerase ribozyme fitness (log ratio)” value was not above -4.2.
The result for G48U C93U C95A A97G A98U G117C reads -3.43; that for C76A C96U, -0.773.
The result for C36U A52C U55G G58C C125A C131G reads not above -4.2; that for A49G G50C G71A A91U U151A, not above -4.2.
The figure for U56A C95U is 0.199; for C93A U135C it is -3.56; for A20G C63U C96A G143C it is -3.2.
Turning to C57A C105U A120G, the “polymerase ribozyme fitness (log ratio)” value amounted to 0.486.
Turning to C8G A47C G81C G84C G86U, the “polymerase ribozyme fitness (log ratio)” value was not above -4.2.
The figure for A52G C85A is -2.19; for C36U C114U C131A it is not above -4.2.
The result for A52G G58A A66U U77G G94A C99G A107G reads not above -4.2.
In the case of C57G U82A C95G U134C, the “polymerase ribozyme fitness (log ratio)” value was -1.35.
The result for G71C G94A reads -3.93.
The result for G48C G58U C105G C114G U135C reads not above -4.2.
As for G58C G59C, the “polymerase ribozyme fitness (log ratio)” value was found to be 0.523.
The figure for A40U A91G C116U A121U is -2.66.
As to C8A G50U C76U G83A C116G C131A U145C, the “polymerase ribozyme fitness (log ratio)” value was not above -4.2.
The figure for A12U C14G G25C C85G G94A U104C A106U C116G U139C is not above -4.2; for U55A C76G U134G it is not above -4.2; for G48U U135C G143C it is -3.78.
The figure for G59A A106C A113C C118G is not above -4.2.
The figure for C54U C57G G94C U134A G136C is not above -4.2.
Turning to A142U U146G, the “polymerase ribozyme fitness (log ratio)” value was -1.2.
In the case of G46U C87U, the “polymerase ribozyme fitness (log ratio)” value was -0.944.
The figure for C54U G141A is -0.888; for A39G G48A G59A C96U U102G G128C G141A U144G it is not above -4.2.
The result for A12U C105G C118A reads -2.62; that for U7A C14G U15G G88A, -3.61; that for A23U C93G, not above -4.2.
The result for G94C C132U reads -1.26.
For the variant A20U C85A G94C A121C, the “polymerase ribozyme fitness (log ratio)” value was -0.745.
The figure for U15A A20U A23G A37G G68C C96U C129G U144A is not above -4.2; for C85A G140C it is -3.64; for U31G A49C A52G A97C A120U U135C U148G it is not above -4.2.
The figure for A39U G59C U146G A150G is -3.66.
The result for G11C A16U G42U A113C reads not above -4.2; that for G46C C69A G81A, -1.82.
With G58A A60C G74A C85G C116G C123U C149G, the “polymerase ribozyme fitness (log ratio)” value was not above -4.2.
The result for A40G G59A U78A G94A C108U reads not above -4.2; that for C5A C14G G59A C85A C118G U139A, not above -4.2.
The result for U53A G58A C76U C103G A150U reads not above -4.2.
With A29C C87U G94U A107C U127G G140A, the “polymerase ribozyme fitness (log ratio)” value was not above -4.2.
For the variant C18G A22G C27U A41U A49C C57A C93G G140C, the “polymerase ribozyme fitness (log ratio)” value is -4.12.
The result for U78A G83U reads not above -4.2; that for A52G C57G C76U G92U U148A, -4.19.
The result for C96U G128A U130G reads not above -4.2.
The result for C72U U101C reads 0.482.
Turning to A52U U53A G58U, the “polymerase ribozyme fitness (log ratio)” value is -0.762.
The result for A21C C57A C93G C99G C118U U139A U144A A150C reads not above -4.2; that for A23C G81A A91U G143A, not above -4.2.
The result for G42A reads -3.47; that for A19G G84A U146C, -0.526; that for A39U A49U G59C C132U U148A, not above -4.2.
Regarding G68U G71U G86U A97U, the “polymerase ribozyme fitness (log ratio)” value is not above -4.2.
The result for A49G C87A G126A reads not above -4.2; that for C8G G34A G124A A137C, not above -4.2.
The figure for A22C A52C is -1.04; for A47G A91G it is -2.73.
The result for C8G U31A A49C U53A G84A A119U A121C A137U reads not above -4.2.
Take C5A C57U G86A A120G G141C: the “polymerase ribozyme fitness (log ratio)” value is -2.54.
With A3U C5A A19U G50A C57U, the “polymerase ribozyme fitness (log ratio)” value is -3.13.
Regarding C72A C103G C118G U148G, the “polymerase ribozyme fitness (log ratio)” value was not above -4.2.
The result for U9C A37C A40G U53A C75U U77A A119U reads not above -4.2; that for C51A G92U U109C, not above -4.2; that for C35U U144A, -0.455.
The figure for G84A U102G C125G is -3.78; for C27A A60G C75U C87U G100A C116U U148A it is not above -4.2.
As to A19G A39C G92A C116A, the “polymerase ribozyme fitness (log ratio)” value is not above -4.2.
The figure for C38U C54A U82C U134G is -3.4; for C85U A115C it is -0.617; for A39G G42A G81U C87A G94U it is not above -4.2.
The result for C10G C96U reads -2.78; that for A47G G59C G62U G83A C87U U101G A138U, not above -4.2.
The figure for C8A A29C A37C A47U A119G is not above -4.2; for A60U G86U it is -4.01.
In the case of A29U G59A C79G G80U G84U G124U, the “polymerase ribozyme fitness (log ratio)” value was not above -4.2.
The result for A52C G70C C85U C125U reads not above -4.2.
The result for G84U C85G C96G reads -3.84.
The result for U56A U101G U144C reads -0.262; that for C36A C51G C85A, not above -4.2; that for U55C C57A A73G C96U A121C C131U, 1.56.
For U53A C79A, the “polymerase ribozyme fitness (log ratio)” value is not above -4.2.
The figure for C36U C95G is -2.94; for U33G C43A C57A A60C G74A G83A C85G A150U it is not above -4.2; for A22C C79A G83U A115G G141A it is not above -4.2.
The result for G70A G94U C96G A142C U148A reads not above -4.2; that for G50U U78C, -2.27.
C75G C93A: the “polymerase ribozyme fitness (log ratio)” value was -4.14.
Take U6A A12G A16U C43U G83A: the “polymerase ribozyme fitness (log ratio)” value is not above -4.2.
The figure for A23G C76U C85A is not above -4.2; for U9G C14U A29C C35A C87U G92A G94U A98U A137U it is not above -4.2.
The figure for U82G A89C A98G A142C is -1.56; for A16U U55A it is -2.64; for U151G G152U it is -3.49.
The figure for G133U G141C is -3.81; for A17C U33A A73U C96U G128A G140A U146G it is -3.99.
With C51A G84A, the “polymerase ribozyme fitness (log ratio)” value was -1.26.
As for A40C G50C G80C A97U U134A U145G, the “polymerase ribozyme fitness (log ratio)” value is not above -4.2.
The result for C85G A98U reads -2.9.
The result for G84C C93U reads -4.07; that for U4G C10G A24U C35U U55G G83A C116A, not above -4.2; that for C63U C93A, -3.69.
U33C U45A C85G G133U: the “polymerase ribozyme fitness (log ratio)” value is not above -4.2.
The result for A3U C5G A21U A30G C93A U148A reads not above -4.2; that for G94C U101A C105G G141C, not above -4.2.
Turning to A3C A16U A26U U55A, the “polymerase ribozyme fitness (log ratio)” value was not above -4.2.
In the case of C5A G34A, the “polymerase ribozyme fitness (log ratio)” value was found to be 0.15.
The result for G128A U139G reads -4.08; that for G50A A52C U55G G141C, not above -4.2.
The figure for U55G C57A G62C C79U U109G is not above -4.2; for C14G U139C it is not above -4.2; for A12G C54G G80A U144A it is -3.53.
As for A17G A41G C54U, the “polymerase ribozyme fitness (log ratio)” value turned out to be 0.908.
The figure for A47C G117A is 0.357; for U15C A52C C85G G94A it is 0.00508; for A28U G59A it is not above -4.2.
The result for C5G C10U C57U C95U reads -2.04; that for G42U G92C, -3.85.
On to A16U C18G G94A, for which the “polymerase ribozyme fitness (log ratio)” value is -2.97.
The figure for U56A G81C C87U is -1.03.
The result for C54A G143C reads -2.81; that for A21G A24U G50A C57A C87G C93G A110U A121U, -4.06.
The figure for U7G A17C A39C A91G C114G is not above -4.2.
For the variant C35U A60G G83A A150G, the “polymerase ribozyme fitness (log ratio)” value is -2.56.
The result for C27G U78A G83U A91U G94C U135G G136C reads -4.03; that for U56C U101G A120U C131A, -2.44.
